For six molecules, EC50 and IC50 results are on record in US20240116985A1 (published 2024).

Starred links: 1 amine or outer side, 2 acyl side, 3 side chain; linkers in the order of their positions; H or OH if unused. Positions of bridges follow the written chain, without caps; N, C: chain ends. Non-standard residues stand in square brackets, D forms with d. Primed or numbered codes have the meaning given here. PyrS2″ = (S)-3-amino-1-((pent-4-en-1-yloxy)carbonyl)pyrrolidine-3-carboxylic acid (stapling residue), C=CCCCOC(=O)N1CC[C@@](N[*:1])(C(=O)[*:2])C1; B5(4) = 2,2-bis(4-pentenyl)glycine = 2-amino-2-(pent-4-en-1-yl)hept-6-enoic acid (stitching residue), C=CCCCC(CCCC=C)(N[*:1])C(=O)[*:2]; PyrS2 = (S)-3-amino-1-((pent-4-en-1-yloxy)carbonyl)pyrrolidine-3-carboxylic acid, C=CCCCOC(=O)N1CC[C@@](N[*:1])(C(=O)[*:2])C1; B5(19) = 2-amino-2-(pent-4-en-1-yl)hept-6-enoic acid (bis(4-pentenyl)glycine), C=CCCCC(CCCC=C)(N[*:1])C(=O)[*:2]; Phe(2-Cl) = N[C@@H](Cc1ccccc1Cl)C(=O)O; Bta = N[C@@H](Cc1csc2ccccc12)C(=O)O; αAllylPro = C=CC[C@@]1(C(=O)O)CCCN1

One test concerns the target T1, beta-catenin (Homo sapiens (Human), UniProt P35222 1-781).
T1 construct: The FP protocol says full-length beta-Catenin (Uniprot ID P35222); also called full-length beta-Catenin; bCat
T1 sequence: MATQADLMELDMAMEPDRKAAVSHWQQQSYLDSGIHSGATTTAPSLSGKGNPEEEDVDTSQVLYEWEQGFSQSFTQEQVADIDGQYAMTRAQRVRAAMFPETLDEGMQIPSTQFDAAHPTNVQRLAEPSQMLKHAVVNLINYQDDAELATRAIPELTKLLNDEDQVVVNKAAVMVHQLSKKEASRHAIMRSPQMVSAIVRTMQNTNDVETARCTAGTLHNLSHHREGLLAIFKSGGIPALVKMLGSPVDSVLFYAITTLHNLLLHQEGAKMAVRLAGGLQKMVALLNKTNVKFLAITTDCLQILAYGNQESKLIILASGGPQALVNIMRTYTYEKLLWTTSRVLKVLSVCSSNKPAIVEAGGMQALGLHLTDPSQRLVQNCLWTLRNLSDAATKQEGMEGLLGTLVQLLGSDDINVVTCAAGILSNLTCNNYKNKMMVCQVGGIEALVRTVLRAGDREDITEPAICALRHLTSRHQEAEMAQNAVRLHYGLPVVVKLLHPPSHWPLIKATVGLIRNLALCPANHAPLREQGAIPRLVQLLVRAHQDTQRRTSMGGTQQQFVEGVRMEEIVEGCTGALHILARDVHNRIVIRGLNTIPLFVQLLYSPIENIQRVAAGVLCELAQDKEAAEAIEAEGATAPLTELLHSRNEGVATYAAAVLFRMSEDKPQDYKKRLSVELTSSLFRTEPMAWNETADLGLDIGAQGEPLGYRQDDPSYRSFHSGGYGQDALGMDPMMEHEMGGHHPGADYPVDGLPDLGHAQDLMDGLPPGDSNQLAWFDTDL
Briefly: fluorescence polarization competition; full-length beta-catenin with 5FAM-TCF4(10-53) probe as competitor. A digest of the protocol:
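Incubate 60 minutes at 20° C. away from light, then read polarization in duplicate. Fit to 1:1 binding with hill slope.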
(In general: In fluorescence polarisation assays a small probe gives low polarisation when free and higher when bound to something large.)

For test [1], the target named is T2, full-length beta-Catenin (Uniprot ID P35222) (Homo sapiens (Human), UniProt P35222 1-781).
T2 construct: also called bCat; B-Catenin
T2 sequence: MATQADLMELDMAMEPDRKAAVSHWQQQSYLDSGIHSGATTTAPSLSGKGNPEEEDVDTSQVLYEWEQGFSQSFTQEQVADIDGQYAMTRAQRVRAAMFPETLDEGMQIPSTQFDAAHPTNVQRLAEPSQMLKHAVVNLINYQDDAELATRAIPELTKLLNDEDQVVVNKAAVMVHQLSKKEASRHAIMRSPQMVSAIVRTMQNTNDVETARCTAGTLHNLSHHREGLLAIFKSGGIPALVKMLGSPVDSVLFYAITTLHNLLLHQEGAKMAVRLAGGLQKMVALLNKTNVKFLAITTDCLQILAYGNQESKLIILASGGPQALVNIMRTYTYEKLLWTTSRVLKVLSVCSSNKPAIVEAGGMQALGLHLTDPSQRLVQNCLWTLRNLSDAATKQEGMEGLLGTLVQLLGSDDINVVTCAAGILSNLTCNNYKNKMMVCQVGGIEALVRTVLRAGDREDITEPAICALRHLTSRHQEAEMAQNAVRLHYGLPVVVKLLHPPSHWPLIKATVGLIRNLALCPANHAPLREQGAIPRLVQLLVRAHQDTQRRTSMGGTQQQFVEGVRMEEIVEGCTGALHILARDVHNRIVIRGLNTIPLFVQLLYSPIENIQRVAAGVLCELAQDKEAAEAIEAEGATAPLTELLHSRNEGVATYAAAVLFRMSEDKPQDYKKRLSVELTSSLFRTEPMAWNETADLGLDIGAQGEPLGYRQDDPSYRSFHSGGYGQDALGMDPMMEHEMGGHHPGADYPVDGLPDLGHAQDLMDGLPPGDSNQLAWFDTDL
In words: fluorescence polarization competition; peptide titrated against 10 nM full-length beta-catenin + 10 nM 5FAM-TCF4(10-53). The protocol:
The plate was incubated protected from light for 60 minutes at 20° C. prior to read. Reads were performed on a CLARIOstar plate reader (BMG Labtech) in duplicate, and data were fitted to a 1:1 binding model with hill slope using an in-house script. All provided concentrations are final concentrations.

For orientation: EC50 means the midpoint of the concentration-response curve. Low readings indicate higher potency in that assay, high ones lower potency in that assay. One may read the IC50 as the concentration needed to halve the response being measured.

In turn, Ac-[αAllylPro]DN[B5(4)]DDAAFL[PyrS2″][Phe(2-Cl)][Bta]L-NH2 (staple 1-4, 4-11, stapled peptide) [I-1422] came in with an EC50 with beta-catenin of 388 nM.
With Ac-[αAllylPro]DS[B5(4)]DDAAFL[PyrS2][Phe(2-Cl)][Bta]L-NH2 (staple 1-4, 4-11, stapled peptide) [I-1423], it took 389 nM to reach a half-maximal effect with beta-catenin (EC50).
In the case of Ac-[αAllylPro]DT[B5(4)]DDAAFL[PyrS2][Phe(2-Cl)][Bta]L-NH2 (staple 1-4, 4-11, stapled peptide) [I-1424], the EC50 with beta-catenin worked out at 235 nM.
As for Ac-[αAllylPro]DL[B5(19)]DDAAFL[PyrS2]F[Bta]Q-NH2 (staple 1-4, 4-11, stapled peptide) [I-1402], the EC50 with beta-catenin was 9 nM.

B1: I-358 (peptide)
peptide: XDAXDDAAFVXFAQ
modifications: not fully specified; N-terminal Ac; PL3 at 1, B5 at 4, S8 at 11 (staples 1-4 and 4-11 by olefin metathesis); C-terminal NH2
notes: Stapled peptide; also called Ac-PL3-Asp-Ala-B5-Asp-Asp-Ala-Ala-Phe-Val-S8-Phe-Ala-Gln-NH2
Regarding B1, in test [1], the IC50 was determined as 5000 nM.

B2: I-355 (peptide)
peptide: XDAXDDAAFVXAWQ
modifications: not fully specified; N-terminal Ac; PL3 at 1, B5 at 4, S8 at 11 (staples 1-4 and 4-11 by olefin metathesis); C-terminal NH2
notes: Stapled peptide; also called Ac-PL3-Asp-Ala-B5-Asp-Asp-Ala-Ala-Phe-Val-S8-Ala-Trp-Gln-NH2
As to B2, in test [1], the IC50 is 5000 nM.
